Test: label from the status in PepcDB records
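Further: failed if final PepcDB status was selected cloned or expressed and not failed if soluble or beyond.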

Row | Sequence | protein production
1 | MSLLTLAFNPQPRAKTYCSGPILRVSGVWAVKILYIVLDGAADSPTSPRKTLEEASKPNIDSLGSHAVCGMVYTVKPGVAPQSDYATLSLLGYNPDEYYPGRGPLEAFGAGIEMRRGDIALRANFATVDPGTLRIIDRRVGRSLTSREARELASAVDGMELEDGEGTALFRATIGHRGVLVLRHRSKPLSDAISNTDPAYERRGRFSVALEKYEPFIKLSNPLVEDEAAVLAARMLNEFTLKAVEILDSHPVNLAREKRGLLKANAILSRDAGGLPEEKPPSFQERFGLRGASIVEMVVERGISRYIGLDDIRVEIEGRAREEVYREEAARAVEALETHDLVYVHLKGPDEPGHDGSFEGKIRAVEDIDKHFFAPLLDRLSSAGLEPAFVVTSDHATPWDVGAHSGDPVPLMISHQSIQGSIGKFSETVCLRGRLGTIIGGYRIIPKTLSLLAGLEHHHHHH | not failed
2 | MSDFNKYCEEAAREALPDSEDEEDIGDEDTCSAQDLAAEFQLKYKPQDEVSVSLQREYVLSLAADQGFSRMAAGLSNSAVHIYNLDSGAGKLENFSYLPPTDSPQSVSICGVRFLDEGPHNILVGTTDGYVRLYDLRLRGEQARFKYTQHPNVPPVPKSLSCFDRNANGRIICCGTEQFHSNAFLVFFDVRERQQMGVYFESHEDDITSLRFHAQNPDLLATGSVDGLVNVFDVKEPDEDEALLNTFNTESSVARLAWHRNVYDKDIISCVTTTGDFKSYECEEGDEVASFERPDVTAAIRRKKAANFNLINAHNQEDGGVFLLAGTNFNKGEILRSVSVTSKNSLQPLANFQGNKQIVRDSLFDSKRSLLFTGGESGIVTVWAQDASGTAFSSEKLKARKEKKSRKQAPY | failed
3 | QRRLSIFVDGNNMFYAQQKNNWFFDPRRVLDYFTCDPTVRLINAFWYTGLKDSQDQRGFRDALISLGYTVRTKILKEYYDDVSGRYSQKANLDIEIVVDMFNTVDQYDQVILFSGDGDFERAIELLRSKNTHITVVSTEGMIARELRNATDCYIDLNNLRAEIEKT | failed
4 | MQDNSVNETKNIVEVGIDSSIEESYLAYSMSVIIGRALPDARDGLKPVHRRILYAMHELGLTSKVAYKKSARIVGDVIGKYHPHGDNAVYDALVRMAQDFSMRLELVDGQGNFGSIDGDNAAAMRYTEARMTKASEEILRDIDKDTIDFVPNYDDTLKEPDILPSRLPNLLVNGANGIAVGMATSIPPHRMDEIIDALVHVLENPNAGLDEILEFVKGPDFPTGGIIYGKAGIIEAYKTGRGRVKVRAKVHVEKTKNKEIIVLDEMPFQTNKAKLVEQISDLAREKQIEGISEVRDESDREGIRVVIELKRDAMSEIVLNHLYKLTTMETTFSIILLAIYNKEPKIFTLLELLHLFLNHRKTIIIRRTIFELEKAKARAHILEGYLIALDNIDEIVRLIKTSQSPEAAKNALMERFTLSEIQSKAILEMRLQRLTGLERDKIKEEYQNLLELIDDLNGILKSEDRLNGVVKTELLEVKEQFSSPRRTEIQESYENIDIEDLIANEPMVVSMSYKGYVKRVDLKAYEKQNRGGKGKLSGSTYEDDFIENFFVANTHDILLFITNKGQLYHLKVYKIPEASRIAMGKAIVNLISLAPDEKIMATLSTKDFSDERSLAFFTKNGVVKRTNLSEFESNRSCGIRAIVLDEGDELVSAKVVDKNAKHLLIASHLGIFIKFPLEEVREIGRTTRGVIGIKLNENDFVVGAVVISDDGNKLLSVSENGLGKQTLAEAYRGQSRGGKGVIGMKLTQKTGNLVGVISVDDENLDLMILTASAKMIRVSIKDIRETGRNASGVKLINTADKVMYVNSCPKEEEPENLETSSAQNLFE | failed
5 | MLQMNLEELRRIQEEMSRSVVLEDLIPLEELEYVVGVDQAFISDEVVSCAVKLTFPELEVVDKAVRVEKVTFPYIPTFLMFREGEPAVNAVKGLVDDRAAIMVDGSGIAHPRRCGLATYIALKLRKPTVGITKKRLFGEMVEVEDGLWRLLDGSETIGYALKSCRRCKPIFISPGSYISPDSALELTRKCLKGYKLPEPIRIADKLTKEVKRELTPTSKLKLEHHHHHH | failed
6 | MSVPDNVYLIGTMNTADRSLAGLDIALRRRFDFVEMAPRPDKLTGVKVAEIDISAVLETMNRRIEVLLDREHRLGHAYFMSLENSNDLSRLSNIFRQQIIPLLQEYFFEDWQRIAWILNDHRKDERFRFIVPAPYSVDSLFGDTGQVAQDSKAWRMNEEAFHKPQSYLGLEHHHHHH | not failed
7 | MNFGEAVSSFFRNYVNFSGRASRSEFWYSYLFIIIVGVILVIVDTIVKNEIISSIWNLAALLPTLAMTTRRLHDINRSGWHQLLAWFIPVGSIALIIWYCKKSDDTVTLSEIERVFR | failed
8 | GEKLLNAASTRGRLCVGIDPHESLLTSWGLPVNVDGLAEFSRACVEAFADTVALVKPQVAFYERFGSAGFAILEETIQTLRERGCLVVSDAKRGDIGSTMAGYASAWLDPASPLSSDAVTVSPYLGFHSLDPVFELAEQHGRGVFVLAATSNPEARELQDQQNADGVSISQQIVDQAAALNAPYMAQGKAGNIGVVIGATLSKPPRLSTLGGAILMPGVGAQGGTASDVDEIAGDMAHLAFPNVSRSILATGPDIAEMKNSVAKN | failed
9 | MNTLKKAFEILDFIVKNPGDVSVSEIAEKFNMSVSNAYKYMVVLEEKGFVLRKKDKRYVPGYKLIEYGSFVLRRFNIRDIAHDHLVDIMKRTGETVHLILKDGFEGVYIDKVEGEQSIPMVSRLGMKVDLYSTASGKSILAFVPEKELKEYLKIVELKPKTPNTITNPRVLKRELEKIRKRGYAVDNEENEIGIMCVGVPIFDHNGYPVAGVSISGVARKFTEEKIEEYSDVLKEKAEEISRKLGY | not failed
10 | MEEKQERYSISEKTYQEFIDHTRVLALEERGIVQCGIATCRDFFSVYRKNQKKHMLLYTVRGKGWLESGACRYELEPGSLVVVPAGIENGFGMEDETWQIAWVFLSQHKEWSMVGENISYQLTPAPEVMYSCIQTLLRSINLSIDYGSAVGAHSVAQLELMLNMPSSESVSRNQLKLRRVFDLVQRQLHKDWSVEQLAALYPCSEPHLHRLTQQQFGRSPMAHLMRMRMEYAARLLRSTEWPIQHIGEIVGYPTSANFSTRFKAWSSMTPREFRQNGRIERDPEK | failed
11 | MQWDPGGATESRSKLYIYLRFLRIEQVFFSLPMAYMGAFLAIREIPPIQVLILMFFSLFFLRTAGMTNDNLADREIDAMNPRTKSRPLVTGKITVREAKLLITISLIGFFITAYLINLYALIFAPIVALIVMSYPYMKRYTAFANYHLASIQGLAVFSGAVASLGLYAKSFTQLVTGIPWLFVISTVFWAVGFDLYNHIPDADFDKKMGLHSFAVLLGDRALMFAGLNQLISVLLALFGDIQFNLGIIAYIATILHGLIMGYAYYSATRGNFGRAFYYNIYSSIVLGIGIIIDIIV | failed
12 | MSVTLVNNENNERYEFETIESTRGPKAVDFSKLFETTGFFSYDPGYSSTAGCQSKISYVNGKKGELYYRGHRIEDLVAKYKYVDVCKLLLTGELPKNQDESLEFELELRHRSFVHESLLNMFSAFPSNAHPMAKLSSGVSILSTLYSTHQNMHTEEDYQTMARRIVAKIPTLAAICYRNEVGAPIIYPDIARSYVENILFMLRGYPYSRLKHTTQGEVEITPLEVEAFDKILTLHADHSQNASSTTVRNVASTGVHPYAAISAGISALWGHLHGGANEKVLLQLEEIGDVKNVDKYIARVKDKNDNFKLMGFGHRVYKSYDPRAKILKGLKDELHQKGVKMDERLSEIAAKVEEIALKDEYFIERNLYPNVDFYSGTILRALKIPVRFFTPVFVIGRTVGWCAQLLEHVKSPQARITRPRQVYVGD | failed
13 | MKLYLILLPVLYLIVSYISIFKMHSVITRILRIVMGILLLFVVALTTLQFPKENWWVFVVLLLLVGNVEVTGFKELKDDKKGVSILNILSLLLFVIFIILIFILY | failed
14 | MIGYVLNGEHEEIPYGELMALLEIFNYNGSVERLKRYVITEDSPAKDIVKRSGYIDEGHRIIFRYNLEEKSVDLVDKIVNDFINSFKDFVANIDYPDIDESKSYAVRVLKLHKDEFTKSIDSLRIEKEIGGIIKLKTNAKVNLTKPDILVRVVILENTFFISNVLEMRDREYFQKNRPHLRKYFHPGCMLPKLARAMVNLARVKEGDIVLDPFCGTGGFLIEAGLIGAKLIGCDIDWRMASGTLINLEEYNLLDKVIKVKRLDAKYVKEFLNELNIEKVDAIVTDPPYGISTAKKGEIEKILETLPEVIKDNGYFVFAYPKKIELDMELEGLYKVYIHKGLIRHIHVYKKI | failed
15 | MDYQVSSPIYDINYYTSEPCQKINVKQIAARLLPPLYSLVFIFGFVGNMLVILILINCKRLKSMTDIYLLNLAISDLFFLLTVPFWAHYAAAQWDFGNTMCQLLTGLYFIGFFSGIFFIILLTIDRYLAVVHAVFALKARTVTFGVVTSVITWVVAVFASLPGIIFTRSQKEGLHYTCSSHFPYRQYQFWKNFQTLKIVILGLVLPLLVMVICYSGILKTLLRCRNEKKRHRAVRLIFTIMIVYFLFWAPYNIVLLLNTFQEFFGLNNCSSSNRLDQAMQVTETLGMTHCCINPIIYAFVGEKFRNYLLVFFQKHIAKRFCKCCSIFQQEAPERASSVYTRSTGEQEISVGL | not failed
16 | MSHPSYPPAPQNDAGAGIPQVPAAPYAYGRQFQGGAQPGYQPGPDSGPYGSPVGAPAKSFMTTWILALLLGSFGVDRFYLGKIGTGIAKLLTAGGFGIWSIVDLIITLTGNARDKQGRPLAGYPENKKKAWIITIVVWFAGLIVGIVSTVLSLTFVAAAVQGAGTDAPVLPSASQEAPAPSSGTASDDGSLTVTMSEGNTVKVSLLNSGYTTEIPGMSYMKPTRGGFLLLEVSWEATAGSSYASPSNFEAFDADGAKGEEIYVEEGLGGLPSGDVAAGEMQRGVIAFDIKNGPTTVVISDDFGDKAATFTLTPAN | failed
17 | MQLEHILRSYARYAPVYDHTFGWLLNFRGRSLAAHLTNRRPGRILEVGVGTGISLPFYRKEHQVHGIDISPHMLERARRRVHSKNLDHVVRLEIMDAREMAFPDDYFDAVVAAYVMSVVPEPQRVLREIERVCKAGGDVIIVNHFAADKKGTRRHFEALLSPLSHKLGWRPDMPIDEILAHTSLHEVRRQTLPPMGLFTLLHLKKASPDFADPARP | failed
18 | MSDVIQLAYFAVAVVFILGLKAMSSPVSARKGIVWAGYAMVAATLITLLKPGMENYGLMITAIVLGGAVAWWSGKVVKMTDMPQMVAIYNGMGSGAAAAIAALEFARGSMHGGFAATLAVLGALIGSVAFSGSCIAFAKLQGIMTKAWRLPAQNVVNVALAGIALVLGGAIIFGSTPASEMVIAFFVVALALGAILTSPIGGADMPVVISLLNAFTGLAVGFEGYVLGNPALIVAGIVVGASGTLLTQLMAKAMNRPIKNIIFTPITGAAAGGGEAIGGSMKELSALDGASVMRYASKVIIVPGYGMAVAGAQHKVWEMAQLLEEGGVEVVFAIHPVAGRMPGHMNVLLAEAGVPYDKIFDLEEINADFPQADVALVIGANDVVNPVARTDKSSPIYGMPILNVDMAQNVIVVKRGQGAGYSGIENALFFKDNCRMLYGSAQQIIGEVITHVKALEV | failed
19 | MSQPVAFVTGCSSGIGRALADAFQRAGYRVWASARKEDDVRALAEAGFQAVQLDVNDAAALARLAEELGVEAAGLDVLVNNAGYGAMGPLLDGGVEAMRRQFETNVFAVVGVTRALFPLLRRKSGLVVNVGSVSGVLVTPFAGAYCASKAAVHALSDALRLELAPFGVEVLEVQPGAIASNFGASASREMDSVVDERSPWWPLRRQIQARAAASQDNPTSAEDFARQLLAAVQRRPRPPLVRIGNGSRALPALARWLPRGLLERLLKKRFGLDTRL | failed
20 | GEGIQPSKKLITRDYKVKEFNKIDAGTVGNIYYTQSTDGKTDLQIYGPDNIVALIQVAVKDNTLFLSIDKSKKVRNFKKMKITITSPTLNGISFKGVGDVHIENGLTTDNLDIESKGVGNVDIQSLTCQKLNVQSMGVGDVKLEGTAQIAALHSKGVGNIEAGNLRANAVEASSQGVGDITCNATESIDAAVRGVGSIKYKGSPTIKSLSKKGVGTIKNI | not failed
21 | KNVNNAEEYWDVIDLRVYPGKNGYFELYDDDGITYEYEKGKYYIIPITWDEDKQELTIGKKRGELEMSKKIIKIIWVEKGKGIEHTKPDVEIEYNGKETITVKRG | failed
